Experiments:
[1] = biological target: glutathione S-transferase [GST: P08515]; assay: indirect ELISA, GST coated
[2] = biological target: GST fusion PDZ mutant protein (R46E:K48D) (mammalian (so in the source)) (UniProt P57105); assay: indirect ELISA, PDZ R46E:K48D coated
[3] = biological target: GST fusion PDZ mutant protein (R46E:K48D) (mammalian (so in the source)) (UniProt P57105); assay: ELISA, wild type PDZ against PDZ R46E:K48D
[4] = biological target: T1, PDZ domain of mitochondrial outer membrane protein 25 (mammalian (so in the source)) (UniProt P57105); assay: indirect ELISA, wild type PDZ coated
T1 sequence (looked up): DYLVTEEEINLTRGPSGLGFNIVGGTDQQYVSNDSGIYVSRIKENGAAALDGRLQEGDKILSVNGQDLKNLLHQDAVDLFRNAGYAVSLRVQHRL

[5] = biological target: human serum albumin (human) (UniProt P02768); assay: indirect ELISA, HSA coated
human serum albumin (human), sequence (P02768 25-609 limits assumed): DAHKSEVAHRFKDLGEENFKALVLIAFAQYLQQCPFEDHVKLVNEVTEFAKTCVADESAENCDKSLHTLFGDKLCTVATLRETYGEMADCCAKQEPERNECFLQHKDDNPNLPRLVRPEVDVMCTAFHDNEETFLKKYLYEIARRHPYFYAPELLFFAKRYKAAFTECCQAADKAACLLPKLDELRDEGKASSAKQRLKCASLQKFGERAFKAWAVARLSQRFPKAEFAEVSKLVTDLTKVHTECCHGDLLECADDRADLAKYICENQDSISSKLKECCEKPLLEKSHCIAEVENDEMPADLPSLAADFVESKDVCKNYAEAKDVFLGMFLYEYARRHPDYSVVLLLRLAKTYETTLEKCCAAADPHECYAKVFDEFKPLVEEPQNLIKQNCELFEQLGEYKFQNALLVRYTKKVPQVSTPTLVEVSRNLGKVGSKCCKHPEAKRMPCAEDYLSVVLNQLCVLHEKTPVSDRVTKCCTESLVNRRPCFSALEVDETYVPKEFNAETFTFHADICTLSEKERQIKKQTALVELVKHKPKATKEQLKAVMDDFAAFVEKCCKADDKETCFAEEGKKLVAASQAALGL

glutathione S-transferase [GST: P08515], sequence (P08515 whole entry, the tested form may be a part): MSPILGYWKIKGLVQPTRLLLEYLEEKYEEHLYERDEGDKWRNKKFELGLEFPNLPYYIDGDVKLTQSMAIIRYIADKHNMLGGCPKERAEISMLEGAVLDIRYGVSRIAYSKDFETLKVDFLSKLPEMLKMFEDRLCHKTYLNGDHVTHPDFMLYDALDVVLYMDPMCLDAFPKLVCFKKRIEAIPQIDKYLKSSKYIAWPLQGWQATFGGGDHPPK

B1: G70 (VHH)
VHH: QVQLVESGGGLVQAGGSLRLSCAASGATFSINAIGWYRQAPGKQRELVAVIKSGNSINYADSVKGRFTISRDHAKNTVYLQMNNLKPEDTAVYYCHADQPPETGWGTWNDLWGQGTQVTVSS
- ELISA affinity (LogIC50 (oD450nm)) [1]: 1.75

B2: P2 (VHH)
VHH: DVQLVESGGGLVQAGGSLRLSCAASGHTFSSYTMGWFHQAPGKEREFVAEISGTGGNTGYADSVKGRFTISRDNAKNTVYLQMNSLKPEDTAVYYCAAVIGSPTDSSDYRSSLDYDYWGQGTQVTVSE
- Mutant ELISA affinity (LogIC50 (oD450nm)) [2]: 4.35
- Affinity fold change [3]: 12.1 fold
- WT ELISA affinity (LogIC50 (oD450nm)) [4]: 5.44

B3: P3 (VHH)
VHH: DVQLVESGGGLVQAGGSLRLSCAASGRTFSSYTMGWFHQAPGKEREFVAEIGGTGGNTGYADSVKGRFTISRDNAKNTVYLQMNSLKPEDTAVYYCAAVIGSPTDSSDYRSSLDYDYWGQGTQVTVSE
- Mutant ELISA affinity (LogIC50 (oD450nm)) [2]: 4.78
- Affinity fold change [3]: 3.04 fold
- WT ELISA affinity (LogIC50 (oD450nm)) [4]: 5.26

B4: NbPDZ P10 (VHH)
VHH: DVQLVESGGGLVQAGGSLRLSCTASGRTFSTYTMAWFRQAPGKEREFVAAITWSGTYYADSVKGRFTISRDNAKNTMYLQMNSLKPEDTAVYICAAVIGSTVDSYSPSDPLEYDYWGQGTQVTVSE
- Mutant ELISA affinity (LogIC50 (oD450nm)) [2]: 3.83
- Affinity fold change [3]: 23.5 fold

B5: G52 (VHH)
VHH: EVQLVESGGGLVQAGGSLRLSCAASGSTFSSKPIGWYRQAPGKGRDLVAAIGGGSSTFYVDSVKGRFTMSRDNAKNTVALQMNSLKPEDTAVYYCNEYLGPKVLPIGSWGQGTQVTVSS
- ELISA affinity (LogIC50 (oD450nm)) [1]: 1

B6: H37 (VHH)
VHH: QVQLVESGGGLVQAGGSLRLSCAASGLTFSNYALGWFRRAPGKERDFVAAISYSGGSTDYADSVKGRFTISRDNAKNTVYLQMNSLKPEDTAVYYCAAAYLGWGTARTAYEYWGQGTQVTVSS
- ELISA affinity (LogIC50 (oD450nm)) [5]: 1.49

B7: H38 (VHH)
VHH: HVQLVESGGGLVQAGGSLRLSCAASELTFSNYAMGWFRRAPGKERGFVAAISYSGGSTDYADSVKGRFTISRDNAKKTVYLQMNSLKPEDTAVYYCAAAYMGWGTARSAYEYWGQGTQVTVSS
- ELISA affinity (LogIC50 (oD450nm)) [5]: 2.44

B8: G64 (VHH)
VHH: HVQLVESGGGLVQAGGSLRLSCKVSGTTFSNSAIGWYRQAPGNRRELVATINYGGSTNYADSGKGRFTISKDNAKNTVYLQMNSLKPEDTAVYYCKTTEWREDGYEYDVWGQGTQVTVSS
- ELISA affinity (LogIC50 (oD450nm)) [1]: 5.68

B9: G77 (VHH)
VHH: QVQLVESGGGLVQAGGSLRLSCTASRSTFRVNPAGWYRQAPGKERELVARITSGGSTNYADSVKGRFTISRDNAKNTVYLQMNSLKPEDTAVYYCNVPYYMEDGYEHDAWGQGTQVTVSS
- ELISA affinity (LogIC50 (oD450nm)) [1]: 6.01

B10: H13 (VHH)
VHH: HVQLVESGGGLVQAGGSLRLSCAASGRTFSTYHMGWFRQAPGKAREFVAAITGSGGITYYADSVKGRFTISRDNAKNTVYLQMNSLKPEDTAVYYCAADTRAYGLVPSTTSSRYNYWGQGTQVTVSS
- ELISA affinity (LogIC50 (oD450nm)) [5]: 1.96

B11: H33 (VHH)
VHH: HVQLVESGGGLVQAGGSLRLSCAASGRTLSSYDMGWFRQPPGKEREFVAAITRHDFNTFYRDSVKGRFTISRDNAKNTVYLQMNSLKSEDTAVYFCAARLDPIFASNSEYAPLYDYWGQGTQVTVSS
- ELISA affinity (LogIC50 (oD450nm)) [5]: 5.03

B12: H34 (VHH)
VHH: QVQLVESGGGLVQAGGSLRLSCAASGRTLSSYDMGWFRKAPGKEREFVAAITRHDYNTYYRDSVKGRFTISRDNAKNTVYLQMNSLKSEDTAVYFCAARLDPIFASNSAYSNLYDYWGQGTQVTVSS
- ELISA affinity (LogIC50 (oD450nm)) [5]: 5.07

B13: H42 (VHH)
VHH: HVQLVESGGGLVQAGGSLRLSCAASGLTFSNYAMGWFRQAPGKEREFVVAISWSGANTYYSDSVKGRFTASRDNAKKTVYLQMNSLKPEDTAVYYCAADYRGLGYSTAHEYDYWGQGTQVTVSS
- ELISA affinity (LogIC50 (oD450nm)) [5]: 4.92

B14: H44 (VHH)
VHH: EVQLVESGGGLAQAGGSLRLSCAASGGTFSNSCMGWFRQAPGMEREFVAIIRSTGHTTYADSVEGRFTVSRDIAKNTVYLEMNSLKPEDTAVYSCAAGASDYGCYHTSGISYWGQGTQVTVSS
- ELISA affinity (LogIC50 (oD450nm)) [5]: 5.62

B15: H10 (VHH)
VHH: DVQLVESGGGLVQAGGSLRLSCRASGLPFGPYTMGWFRQTPGQEREFVAAITWSSMNTNYADSVKGRFTISRDSAKNTVYLQMNTLKPDDTAVYYCAADDRAVPMLGDFEDYIYWGQGTQVTVSS
- ELISA affinity (LogIC50 (oD450nm)) [5]: 1.46

B16: H40 (VHH)
VHH: EVQLVESGGGLVQAGASLRLSCAASGGTFSSYIMGWFRQAPGKEREFVAAISWSGRSTHYADSVKGRFAISRDNDRVYLQMNSLKPEDTAVYSCAADPNYTWRDDRYYREEGYTYWGQGTQVTVSS
- ELISA affinity (LogIC50 (oD450nm)) [5]: 3.16

B17: H31 (VHH)
VHH: QVQLVESGGGLVQPGGSLRLSCTPSGFRLEDYPIAWFRQAPGKEREGLSCITSGDGRTYYEESVKGRFTISRDNAQNKVYLQMNKLTPEDTAVYHCATVPSDNLCGYLHRRPFASWGQGTQVTVSS
- ELISA affinity (LogIC50 (oD450nm)) [5]: 1.07

B18: H23 (VHH)
VHH: DVQLVESGGGLVQAGGSLTLSCAASGRTFSSSTMGWFRRAPGKEREFVAAISGSARTTDYADSVKGRFTISRDNAKNTVYLQMISLKPEDTAIYYCARKRVVDVTTSNYELRYDYWGQGTQVTVSS
- ELISA affinity (LogIC50 (oD450nm)) [5]: 1.62

B19: P4 (VHH)
VHH: HVQLVESGGGLVQAGGSLRLSCAAAGRTSSDYAMGWFRQAPGKEREFVSAINWSGISTYYADSVKGRFTISRDNAKNTVHLQMNSLKPEDTAVYYCAAEKLESLRNWHDPLMYDYWGQGTQVTVSE
- Mutant ELISA affinity (LogIC50 (oD450nm)) [2]: 4.58
- Affinity fold change [3]: 1 fold
- WT ELISA affinity (LogIC50 (oD450nm)) [4]: 4.42

B20: G53 (VHH)
VHH: HVQLVESGGGLVQAGGSLRLSCVASGFTYSTYTMGWFRQAPGKEREIVAAKNWSGARIYYTESVKGRFTISRDSGSNTMYLQMDSLKPEDTAVYYCAARLTWTDTTTPTTYPYWGQGTQVTVSS
- ELISA affinity (LogIC50 (oD450nm)) [1]: 5.37

B21: G65 (VHH)
VHH: QVQLVESGGGLVQAGGSLRLSCATSGRTFSTYALGWFRQRPGKEREFVATIHWSDGRTLYADSVKGRFTLSRDNAQNTVYLQMNSLKPEDTAIYYCAASIYRIGSYDVSTSQGYDYWGQGTQVTVSS
- ELISA affinity (LogIC50 (oD450nm)) [1]: 3.97

B22: G66 (VHH)
VHH: QVQLVESGGGLVQAGGSLRLSCATSGRTFSTYAMGWFRQRPGKEREFVATIHWSDGRTLYTDSVKGRFTLSRDNAQNTVYLQMNSLKPEDTAVYYCAAATYRIGSYDVSTSQGYNYWGQGTQVTVSS
- ELISA affinity (LogIC50 (oD450nm)) [1]: 4.29

B23: H32 (VHH)
VHH: HVQLVESGGGLVQAGGSLRLSCAASDTIDNYARAWFRQAPGKEREFVAAITWTFGTPYYTDSVKGRFTISRDDAKNTVYLQMNSLKPEDTAVYYCAASLYLPVRTASGGYRLDTDRPQYWGQGTQVTVSS
- ELISA affinity (LogIC50 (oD450nm)) [5]: 5.33

B24: G69 (VHH)
VHH: QVQLVESGGGLVQAGGSLRLSCVDSGRTFSSNTMGWFRQAPGKDRDFVAAINRSGVITNYADSVKGRFTISRDNAKNTVYLQLNSLKPEDTAVYYCAARAGGWPSQIPVEYDRWGQGTQVTVSS
- ELISA affinity (LogIC50 (oD450nm)) [1]: 3.69

B25: G58 (VHH)
VHH: EVQLVESGGGLVQAGGSLRLSCAGSGDTFSRYTLGWFRQAPGKEREFVAGISWSGGSTSYANSVKGRFTISRDNAKNTMYLQMNSLKPEDTAVYTCAAPGLPGTVVVGASDFYVYWGQGTQVTVSS
- ELISA affinity (LogIC50 (oD450nm)) [1]: 1.54

B26: G68 (VHH)
VHH: EVQLVESGGGLVQAGGSLRLSCTASGSIFSVNVMDWYRQAPGKQREFVATITGSGATNYADSVKGRFTISRGSAKNTVYLQMNSLKPDDTAVYYCHNADYREDGYEYDNWGQGTQVTVSS
- ELISA affinity (LogIC50 (oD450nm)) [1]: 1.07

B27: H39 (VHH)
VHH: QVQLVESGGGLVQAGVSLRLSCAASERTFSSYIMGWFRQAPGKEREFIAAISWSGGNTDYAGSVQGRFTISRDNAQNTVYLQMNSLEPEDTAVYYCAADATHSWSYGSRWYDRNYNYWGQGTQVTVSS
- ELISA affinity (LogIC50 (oD450nm)) [5]: 5.2

B28: G54 (VHH)
VHH: QVQLVESGGGLVKPGESLKLSCVASGETLSSYIMGWFRQAPGKEREFVAAVSWSGNQQDYADSVKGRFTISRDNAEKTVDLQMNSLNPEDTAVYYCAGDQIGFWSSRTQAHEYEYWGQGTQVTVSS
- ELISA affinity (LogIC50 (oD450nm)) [1]: 1.54

B29: G67 (VHH)
VHH: HVQLVESGGGLVQAGGSLRLSCVASGHTVSNYAMAWFRQAPGKEREFVAGISWRATLTYYRDSVKGRFTISRDNAKNTVYLQMSSLKPEDTAVYFCASDRTPYVSRGTSLVEYDYWGQGTQVTVSS
- ELISA affinity (LogIC50 (oD450nm)) [1]: 3.6

B30: G73 (VHH)
VHH: EVQLVESGGGLVQAGGSLRLSCAASGRTFSDDAMAWFRQAPGKEREFVAAISWHPENTFYADSVKGRFTISRDKTKNTEYLQMNSLKPEDTAVYYCAAGPRLEIGDYAQYKYWGQGTQVTVSS
- ELISA affinity (LogIC50 (oD450nm)) [1]: 0.955

Source: US20230176070A1
